From IntAct's records for PubMed 21621563

B1: Forkhead box protein O3 (Homo sapiens), O43524 (parent)
chain: MAEAPASPAPLSPLEVELDPEFEPQSRPRSCTWPLQRPELQASPAKPSGETAADSMIPEEEDDEDDEDGGGRAGSAMAIGGGGGSGTLGSGLLLEDSARVLAPGGQDPGSGPATAAGGLSGGTQALLQPQQPLPPPQPGAAGGSGQPRKCSSRRNAWGNLSYADLITRAIESSPDKRLTLSQIYEWMVRCVPYFKDKGDSNSSAGWKNSIRHNLSLHSRFMRVQNEGTGKSSWWIINPDGGKSGKAPRRRAVSMDNSNKYTKSRGRAAKKKAALQTAPESADDSPSQLSKWPGSPTSRSSDELDAWTDFRSRTNSNASTVSGRLSPIMASTELDEVQDDDAPLSPMLYSSSASLSPSVSKPCTVELPRLTDMAGTMNLNDGLTENLMDDLLDNITLPPSQPSPTGGLMQRSSSFPYTTKGSGLGSPTSSFNSTVFGPSSLNSLRQSPMQTIQENKPATFSSMSHYGNQTLQDLLTSDSLSHSDVMMTQSDPLMSQASTAVSAQNSRRNVMLRNDPMMSFAAQPNQGSLVNQNLLHHQHQTQGALGGSRALSNSVSNMGLSESSSLGSAKHQQQSPVSQSMQTLSDSLSGSSLYSTSANLPVMGHEKFPSDLDLDMFNGSLECDMESIIRSELMDADGLDFNFDSLISTQNVVGLNVGNFTGAKQASSQSWVPG

Columns and labels:
[1] = variants of: B1; conditions: with 1433z_mouse Ywhaz
akt1_human AKT1, P31749 = variants of: B1; conditions: with akt1_human AKT1, P31749
Sequence of akt1_human AKT1, P31749 (P31749 whole entry): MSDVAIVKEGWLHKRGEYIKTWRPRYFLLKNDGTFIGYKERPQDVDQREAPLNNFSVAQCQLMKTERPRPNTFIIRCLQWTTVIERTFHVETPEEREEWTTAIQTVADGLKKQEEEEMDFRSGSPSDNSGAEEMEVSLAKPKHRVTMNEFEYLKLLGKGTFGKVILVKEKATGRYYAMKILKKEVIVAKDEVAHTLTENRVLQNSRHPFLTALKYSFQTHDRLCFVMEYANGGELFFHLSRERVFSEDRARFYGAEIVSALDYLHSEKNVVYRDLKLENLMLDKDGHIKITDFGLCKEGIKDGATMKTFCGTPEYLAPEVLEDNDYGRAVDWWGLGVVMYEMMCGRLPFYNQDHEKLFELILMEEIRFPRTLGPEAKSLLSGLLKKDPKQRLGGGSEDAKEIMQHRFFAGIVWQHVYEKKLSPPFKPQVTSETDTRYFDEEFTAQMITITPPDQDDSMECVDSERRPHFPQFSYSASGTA

Variant: P34A
- effect of a mutation on the interaction [1]: decreasing interaction strength
- effect of a mutation on the interaction (akt1_human AKT1, P31749): with no effect

Variant: R27L;R29L;R248L;R250L
- effect of a mutation on the interaction [1]: disrupting interaction strength
- effect of a mutation on the interaction (akt1_human AKT1, P31749): decreasing interaction strength

Variant: R27L;R29L;R248L;R250L;R310L;R312L
- effect of a mutation on the interaction [1]: disrupting interaction strength
- effect of a mutation on the interaction (akt1_human AKT1, P31749): decreasing interaction strength

Variant: T32A;S253A;S315A
- effect of a mutation on the interaction [1]: disrupting interaction strength
- effect of a mutation on the interaction (akt1_human AKT1, P31749): decreasing interaction strength

Variant: R27L;R29L
- effect of a mutation on the interaction [1]: disrupting interaction strength
- effect of a mutation on the interaction (akt1_human AKT1, P31749): with no effect
